The sequences below were run on Escherichia coli TOP10 (assay: shrunken log2 fold change of peptide-encoding DNA abundance (4.5 h post-induction vs induction); higher = less antimicrobial activity (less host growth inhibition)). Details: time post-induction: 4.5 h; library: site-saturation at positions 5, 18, 19, 20.
In the case of RRIRQRPPRLPRPRPRPQRFPRP, the “shrunken log2 fold change” value is reported as -0.0204.
For RRIRSRPPRLPRPRPRPRRQPRP, the “shrunken log2 fold change” value was 0.681.
In the case of RRIRFRPPRLPRPRPRPVPHPRP, the “shrunken log2 fold change” value is reported as -0.342.
In the case of RRIRGRPPRLPRPRPRPPQEPRP, the “shrunken log2 fold change” value is reported as 0.352.
In the case of RRIRNRPPRLPRPRPRPRSMPRP, the “shrunken log2 fold change” value is reported as -0.365.
RRIRWRPPRLPRPRPRPVGLPRP was tested, and the “shrunken log2 fold change” value was 0.568.
In the case of RRIRRRPPRLPRPRPRPEFAPRP, the “shrunken log2 fold change” value is reported as 0.129.
RRIRSRPPRLPRPRPRPNWEPRP was tested, and the “shrunken log2 fold change” value was 0.015.
RRIRTRPPRLPRPRPRPIHPPRP was tested, and the “shrunken log2 fold change” value was -0.389.
With RRIRDRPPRLPRPRPRPQQKPRP the “shrunken log2 fold change” value was -0.14.
With RRIRTRPPRLPRPRPRPHWNPRP the “shrunken log2 fold change” value was -0.424.
RRIRVRPPRLPRPRPRPYCCPRP was tested, and the “shrunken log2 fold change” value was -0.252.
With RRIRFRPPRLPRPRPRPSIFPRP the “shrunken log2 fold change” value was -0.579.
With RRIRIRPPRLPRPRPRPTPGPRP the “shrunken log2 fold change” value was 0.131.
With RRIRTRPPRLPRPRPRPGLEPRP the “shrunken log2 fold change” value was 0.198.
RRIRPRPPRLPRPRPRPEAVPRP was tested, and the “shrunken log2 fold change” value was 0.216.
With RRIRGRPPRLPRPRPRPCGAPRP the “shrunken log2 fold change” value was 1.16.
For RRIRDRPPRLPRPRPRPKWCPRP, the “shrunken log2 fold change” value was 0.135.
With RRIRMRPPRLPRPRPRPPTHPRP the “shrunken log2 fold change” value was 0.696.
RRIRYRPPRLPRPRPRPERHPRP was tested, and the “shrunken log2 fold change” value was -0.0384.
With RRIRGRPPRLPRPRPRPYSEPRP the “shrunken log2 fold change” value was -0.093.
RRIRLRPPRLPRPRPRPHALPRP was tested, and the “shrunken log2 fold change” value was -0.396.
RRIRARPPRLPRPRPRPECSPRP was tested, and the “shrunken log2 fold change” value was 1.
RRIRQRPPRLPRPRPRPQCLPRP was tested, and the “shrunken log2 fold change” value was -0.122.
With RRIRLRPPRLPRPRPRPINMPRP the “shrunken log2 fold change” value was -0.482.
In the case of RRIRNRPPRLPRPRPRPIAAPRP, the “shrunken log2 fold change” value is reported as 0.147.
In the case of RRIRYRPPRLPRPRPRPHNAPRP, the “shrunken log2 fold change” value is reported as -1.21.
With RRIRARPPRLPRPRPRPWEYPRP the “shrunken log2 fold change” value was -0.00494.
In the case of RRIRFRPPRLPRPRPRPWMWPRP, the “shrunken log2 fold change” value is reported as -0.0253.
In the case of RRIRERPPRLPRPRPRPNDVPRP, the “shrunken log2 fold change” value is reported as 0.0254.
With RRIRLRPPRLPRPRPRPAYWPRP the “shrunken log2 fold change” value was 0.154.
RRIRERPPRLPRPRPRPRDPPRP was tested, and the “shrunken log2 fold change” value was 0.0576.
RRIRARPPRLPRPRPRPYQKPRP was tested, and the “shrunken log2 fold change” value was -0.0277.
For RRIRWRPPRLPRPRPRPVPYPRP, the “shrunken log2 fold change” value was -0.638.
For RRIRYRPPRLPRPRPRPWYAPRP, the “shrunken log2 fold change” value was -1.43.
RRIRGRPPRLPRPRPRPIENPRP was tested, and the “shrunken log2 fold change” value was 0.745.
RRIRKRPPRLPRPRPRPHAYPRP was tested, and the “shrunken log2 fold change” value was 0.0163.
For RRIRKRPPRLPRPRPRPLITPRP, the “shrunken log2 fold change” value was 0.0992.
With RRIRTRPPRLPRPRPRPIEFPRP the “shrunken log2 fold change” value was 0.0274.
For RRIRARPPRLPRPRPRPKYIPRP, the “shrunken log2 fold change” value was -0.536.
In the case of RRIRGRPPRLPRPRPRPKFTPRP, the “shrunken log2 fold change” value is reported as 0.12.
For RRIRKRPPRLPRPRPRPWIEPRP, the “shrunken log2 fold change” value was 0.00935.
With RRIRPRPPRLPRPRPRPIVIPRP the “shrunken log2 fold change” value was -0.328.
For RRIRKRPPRLPRPRPRPATIPRP, the “shrunken log2 fold change” value was 0.00392.
RRIRMRPPRLPRPRPRPYESPRP was tested, and the “shrunken log2 fold change” value was 0.107.
In the case of RRIRNRPPRLPRPRPRPGDEPRP, the “shrunken log2 fold change” value is reported as 0.0115.
With RRIRWRPPRLPRPRPRPLCIPRP the “shrunken log2 fold change” value was -0.275.
With RRIRTRPPRLPRPRPRPQKKPRP the “shrunken log2 fold change” value was 0.0215.
In the case of RRIRIRPPRLPRPRPRPPPRPRP, the “shrunken log2 fold change” value is reported as 0.929.
With RRIRERPPRLPRPRPRPPCQPRP the “shrunken log2 fold change” value was 0.0382.
With RRIRNRPPRLPRPRPRPFQMPRP the “shrunken log2 fold change” value was -0.673.
RRIRMRPPRLPRPRPRPGCAPRP was tested, and the “shrunken log2 fold change” value was 1.09.
With RRIRLRPPRLPRPRPRPGDDPRP the “shrunken log2 fold change” value was 0.431.
With RRIRFRPPRLPRPRPRPKICPRP the “shrunken log2 fold change” value was -0.0416.
RRIRQRPPRLPRPRPRPASRPRP was tested, and the “shrunken log2 fold change” value was -0.124.
For RRIRMRPPRLPRPRPRPARAPRP, the “shrunken log2 fold change” value was 1.43.
With RRIRCRPPRLPRPRPRPRHQPRP the “shrunken log2 fold change” value was 0.18.
For RRIRIRPPRLPRPRPRPDYFPRP, the “shrunken log2 fold change” value was 0.197.
For RRIRCRPPRLPRPRPRPDMIPRP, the “shrunken log2 fold change” value was -0.69.
In the case of RRIRHRPPRLPRPRPRPDYQPRP, the “shrunken log2 fold change” value is reported as -0.0951.
For RRIRFRPPRLPRPRPRPENLPRP, the “shrunken log2 fold change” value was -0.0251.
RRIRPRPPRLPRPRPRPFFSPRP was tested, and the “shrunken log2 fold change” value was -0.0993.
With RRIRVRPPRLPRPRPRPCKEPRP the “shrunken log2 fold change” value was -0.335.
In the case of RRIRRRPPRLPRPRPRPVLFPRP, the “shrunken log2 fold change” value is reported as 0.315.
With RRIRRRPPRLPRPRPRPPPSPRP the “shrunken log2 fold change” value was 1.21.
For RRIRVRPPRLPRPRPRPRLRPRP, the “shrunken log2 fold change” value was 0.311.
In the case of RRIRMRPPRLPRPRPRPQWTPRP, the “shrunken log2 fold change” value is reported as 0.0242.
In the case of RRIRCRPPRLPRPRPRPFCEPRP, the “shrunken log2 fold change” value is reported as 0.000102.
With RRIRERPPRLPRPRPRPERRPRP the “shrunken log2 fold change” value was -0.0345.
With RRIRERPPRLPRPRPRPAQPPRP the “shrunken log2 fold change” value was 0.0203.
RRIRYRPPRLPRPRPRPPVCPRP was tested, and the “shrunken log2 fold change” value was 0.065.
With RRIRLRPPRLPRPRPRPTRLPRP the “shrunken log2 fold change” value was 0.432.
In the case of RRIRTRPPRLPRPRPRPCAPPRP, the “shrunken log2 fold change” value is reported as -0.142.
For RRIRARPPRLPRPRPRPTRVPRP, the “shrunken log2 fold change” value was 0.343.
With RRIRVRPPRLPRPRPRPARIPRP the “shrunken log2 fold change” value was 0.149.
RRIRWRPPRLPRPRPRPMWCPRP was tested, and the “shrunken log2 fold change” value was -0.166.
With RRIRTRPPRLPRPRPRPQSTPRP the “shrunken log2 fold change” value was -0.236.
In the case of RRIRERPPRLPRPRPRPCFVPRP, the “shrunken log2 fold change” value is reported as -0.151.
In the case of RRIRKRPPRLPRPRPRPHAHPRP, the “shrunken log2 fold change” value is reported as 0.428.
RRIRCRPPRLPRPRPRPREWPRP was tested, and the “shrunken log2 fold change” value was -0.0656.
For RRIRSRPPRLPRPRPRPVQMPRP, the “shrunken log2 fold change” value was 0.0426.
With RRIRGRPPRLPRPRPRPTKCPRP the “shrunken log2 fold change” value was 0.684.
RRIRARPPRLPRPRPRPETIPRP was tested, and the “shrunken log2 fold change” value was 0.541.
For RRIRDRPPRLPRPRPRPIDAPRP, the “shrunken log2 fold change” value was -0.264.
With RRIRVRPPRLPRPRPRPVPKPRP the “shrunken log2 fold change” value was 0.128.
In the case of RRIRFRPPRLPRPRPRPVPYPRP, the “shrunken log2 fold change” value is reported as -0.693.
In the case of RRIRTRPPRLPRPRPRPRHVPRP, the “shrunken log2 fold change” value is reported as 0.0629.
With RRIRTRPPRLPRPRPRPKIVPRP the “shrunken log2 fold change” value was -0.0543.
For RRIRWRPPRLPRPRPRPMRVPRP, the “shrunken log2 fold change” value was 1.03.
RRIRLRPPRLPRPRPRPIMVPRP was tested, and the “shrunken log2 fold change” value was -0.117.
For RRIRMRPPRLPRPRPRPSHNPRP, the “shrunken log2 fold change” value was -0.194.
RRIRERPPRLPRPRPRPWGRPRP was tested, and the “shrunken log2 fold change” value was 0.268.
RRIRSRPPRLPRPRPRPPVNPRP was tested, and the “shrunken log2 fold change” value was -0.489.
RRIRERPPRLPRPRPRPAFPPRP was tested, and the “shrunken log2 fold change” value was 0.295.
RRIRYRPPRLPRPRPRPFPWPRP was tested, and the “shrunken log2 fold change” value was -0.18.
RRIRSRPPRLPRPRPRPWYHPRP was tested, and the “shrunken log2 fold change” value was -0.45.
For RRIRPRPPRLPRPRPRPYPKPRP, the “shrunken log2 fold change” value was -0.0921.
For RRIRNRPPRLPRPRPRPTNIPRP, the “shrunken log2 fold change” value was -0.312.
For RRIRTRPPRLPRPRPRPSCKPRP, the “shrunken log2 fold change” value was -0.885.
With RRIRHRPPRLPRPRPRPCKYPRP the “shrunken log2 fold change” value was 0.0259.
With RRIRTRPPRLPRPRPRPGGRPRP the “shrunken log2 fold change” value was 0.384.
RRIRQRPPRLPRPRPRPDETPRP was tested, and the “shrunken log2 fold change” value was -0.00179.
With RRIRDRPPRLPRPRPRPKNMPRP the “shrunken log2 fold change” value was -0.482.
For RRIRNRPPRLPRPRPRPFCYPRP, the “shrunken log2 fold change” value was 0.166.
RRIRCRPPRLPRPRPRPFYPPRP was tested, and the “shrunken log2 fold change” value was -0.511.
With RRIRNRPPRLPRPRPRPTMGPRP the “shrunken log2 fold change” value was -0.0468.
RRIRYRPPRLPRPRPRPCACPRP was tested, and the “shrunken log2 fold change” value was 0.0891.
With RRIRARPPRLPRPRPRPFDTPRP the “shrunken log2 fold change” value was -0.333.
With RRIRNRPPRLPRPRPRPKWDPRP the “shrunken log2 fold change” value was 0.0992.
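Further: peptides expressed intracellularly from a pBAD plasmid library in pooled LB shake-flask culture, induced with 0.3% L-arabinose, DNA abundance read by NGS, three biological replicates, DESeq2 with apeglm shrinkage.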
